Our source for the binding signal values is patent US20140142160.

For this data set, the system named is Ezh2 (native PRC2) (Mus musculus). The data set is described as follows: pulldown. As to conditions: RIP-seq WT RPKM.

Tsix RNA showed a binding signal (Ezh2-/- RPKM 3.27) of 10.3 RPKM.

Consider Xist/RepA endogenous RNA, for which the binding signal (Ezh2-/- RPKM 0) came to 4.18 RPKM.
